Test results: patent US20230167179A1 (CENTRE NATIONAL DE LA RECHERCHE SCIENTIFIQUE, published 2023)
Values belong to the molecule of their own block, whether it stands above or below them.

Columns and labels:
[1] = biological target: recombinant IL-1RA (Homo sapiens (Human)) (UniProt P18510); experiment: Octet BLI, biotinylated antibody on streptavidin biosensor, IL-1RA at 22.2 nM
[2] = biological target: recombinant IL-1RA (Homo sapiens (Human)) (UniProt P18510); experiment: Octet BLI, biotinylated antibody on streptavidin biosensor, IL-1RA in solution, 1:1 fit
[3] = biological target: recombinant IL-1RA (Homo sapiens (Human)) (UniProt P18510); experiment: Octet BLI, biotinylated antibody on streptavidin biosensor, IL-1RA at 14.8 nM
[4] = biological target: recombinant IL-1RA (Homo sapiens (Human)) (UniProt P18510); experiment: Octet BLI, biotinylated antibody on streptavidin biosensor, IL-1RA at 50 nM
[5] = biological target: recombinant IL-1RA (Homo sapiens (Human)) (UniProt P18510); experiment: Octet BLI, comparison of KD
[6] = biological target: recombinant IL-1RA (Homo sapiens (Human)) (UniProt P18510); experiment: Octet BLI, biotinylated antibody on streptavidin biosensor, IL-1RA at 33.3 nM
[7] = biological target: recombinant IL-1RA (Homo sapiens (Human)) (UniProt P18510); experiment: Octet BLI, biotinylated antibody on streptavidin biosensor, IL-1RA at 9.87 nM
recombinant IL-1RA [8] = biological target: T1, recombinant IL-1RA (Homo sapiens (Human), UniProt P18510 26-177); experiment: Octet BLI, biotinylated antibody on streptavidin biosensor, IL-1RA in solution, 1:1 fit over 4 concentrations
T1 construct: also called IL-1RA antigen; IL-RA
T1 sequence (P18510 26-177): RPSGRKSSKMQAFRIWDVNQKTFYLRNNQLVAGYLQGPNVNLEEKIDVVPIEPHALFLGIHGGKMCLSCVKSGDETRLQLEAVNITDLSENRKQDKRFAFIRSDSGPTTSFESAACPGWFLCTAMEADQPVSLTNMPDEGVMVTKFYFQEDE
Description: (§1) This antigen was tested at 12 nM at the first point, then diluted 1.5 times on 6 points for the first 4 antibodies.
For each antibody, 4 concentrations were used to calculate the KD. The constant KD is related to the rate of complex formation (described by the rate constant of association, kon) and the rate of dissociation (described by the rate constant of dissociation, kdis), with KD=kdis/kon. A high affinity interaction is characterized by a low KD, rapid recognition (high kon) and stability of the complexes formed (low kdis). The R2 makes it possible to estimate the reliability of the results obtained (the closer it is to 1, the more reliable the results).

recombinant IL-1RA [9] = biological target: T1, recombinant IL-1RA; experiment: Octet BLI, biotinylated antibody on streptavidin biosensor, IL-1RA at 2.37 nM
Description: as §1

recombinant IL-1RA [10] = biological target: T1, recombinant IL-1RA; experiment: Octet BLI, biotinylated antibody on streptavidin biosensor, IL-1RA at 3.55 nM
Description: as §1

recombinant IL-1RA [11] = biological target: T1, recombinant IL-1RA; experiment: Octet BLI, biotinylated antibody on streptavidin biosensor, IL-1RA at 5.33 nM
Description: as §1

recombinant IL-1RA (Homo sapiens (Human)), sequence (P18510 26-177): as above

B1: 908.9E11B6 (antibody, IgG1, V domains shown)
VH: QVQLKESGPGLVAPSQSLSITCTVSGFSLTSYGVHWVRQPPGKGLEWLGVIWAGGVTHYNSALMSRLNISKDNSQSQVFLKMNSLRTDDTAMYYCARGGALLRSHFDYWGQGTTLTVSS
VL: QAVVTQESALTTSPGETVTLTCRSSTGAVTTSNYANWVQEKPDHLFTGLIGGTNNRAPGVPARFSGSLIGDKAALTITGAQTEDEAIYHCALWYSNLWVFGGRTKLTVL
Kd (recombinant IL-1RA [8]): 4.86 nM | koff (recombinant IL-1RA [8]): 0.000865 s⁻¹ | kon (recombinant IL-1RA [8]): 178000 M⁻¹ s⁻¹ | Response (recombinant IL-1RA [9]): 0.101 | Response (recombinant IL-1RA [10]): 0.154 | Response (recombinant IL-1RA [11]): 0.229

B2: 908.9G5B9 (antibody, V domains shown)
VH: EVQLQQSGAELVKPGASVKLSCTVSGFNITDTYIHWVKQRPEKGLEWIGRIDPANGNTKYDPKLQGKATITADTSSNTAYLQLSSLTSEDTAVYYCARDGTYVYYAMDYWGQGTSVTVSS
VL: DIQMTQSPASLSASVGETVTITCRASENIFIYLAWYQQKQGKSPQLLVYNAKTLAEGVPSRFSGSGSGTQFSLKINSLLPEDFGSYYCQHHYGIPFTFGSGTKLEIE
notes: Biotinylated in the Octet assay; fixed (capture) antibody in the sandwich ELISAs
Kd (recombinant IL-1RA [8]): 3.84 nM | koff (recombinant IL-1RA [8]): 0.00131 s⁻¹ | kon (recombinant IL-1RA [8]): 342000 M⁻¹ s⁻¹ | Response (recombinant IL-1RA [9]): 0.092 | Response (recombinant IL-1RA [10]): 0.132 | Response (recombinant IL-1RA [11]): 0.2

Other lines, results leading:

Response [1]: 0.105 | Kd [2]: 50.8 nM | koff [2]: 0.00718 s⁻¹ | kon [2]: 142000 M⁻¹ s⁻¹ | Response [3]: 0.0761 | Response [4]: 0.151 | fold lower affinity than the antibodies selected in examples 2, 3 [5]: > 10 times | Response [6]: 0.121 | Response [7]: 0.0638
Molecule: anti-IL-1RA antibody MAB280 from R&D Systems

Kd (recombinant IL-1RA [8]): 1.76 nM | koff (recombinant IL-1RA [8]): 0.000464 s⁻¹ | kon (recombinant IL-1RA [8]): 264000 M⁻¹ s⁻¹ | Response (recombinant IL-1RA [9]): 0.107 | Response (recombinant IL-1RA [10]): 0.15 | Response (recombinant IL-1RA [11]): 0.21
B3: 908.10E12C1 (antibody, IgG1, V domains shown)
VH: EVQLQQSGPELVKPGASVKISCKTSGYTFTEYTMHWVKQSHGKSLEWIGSINPNNGGTNYNQKFKGKATLTVDKSSNTAYMELRSLTSGDSAVYYCARTLYYAMDYWGQGTSVTVSS
VL: DIVMTQSPSSLAMSVGQKVTMSCKSSQSLLNSSNQKNYLAWYQQKPRQSPKLLVYFASTRDSGVPDRFLGSGSGTDFTLTINRVQAEDLADYFCQQHYILPPTFGAGTKLELK
